Assay results: publication PMC6384864, “Identification of a Novel Specific Cucurbitadienol Synthase Allele in Siraitia grosvenorii Correlates with High Catalytic Efficiency” (Molecules, 2019)

Experiments:
[1] = tested on: T1, CC(C)=CCC/C(C)=C/CC/C(C)=C/CC/C=C(\C)CC/C=C(\C)CC[C@@H]1OC1(C)C; assay: GC-MS of reaction product, yeast homogenate (Methods; Results text says purified variants); format: biochemical, Siraitia grosvenorii; conditions: 30 °C, pH 7.0, 100 mM sodium phosphate, 0.1% Triton X-100, allele 50R573L
T1 construct: full length, 759 residues; yeast codon-optimised in pCEV-G4-Km, S. cerevisiae BY4742, no tag told
Excerpt: GC-MS of reaction product, yeast homogenate (Methods; Results text says purified variants) on SgCS (cucurbitadienol synthase, wild type 50R573L)

[2] = tested on: T1, CC(C)=CCC/C(C)=C/CC/C(C)=C/CC/C=C(\C)CC/C=C(\C)CC[C@@H]1OC1(C)C; assay: as above; format: biochemical, Siraitia grosvenorii; conditions: 30 °C, pH 7.0, 100 mM sodium phosphate, 0.1% Triton X-100, natural allele 50C573L

Chain of SgCS (cucurbitadienol synthase, wild type 50R573L) (Siraitia grosvenorii) (chain, as listed by the source): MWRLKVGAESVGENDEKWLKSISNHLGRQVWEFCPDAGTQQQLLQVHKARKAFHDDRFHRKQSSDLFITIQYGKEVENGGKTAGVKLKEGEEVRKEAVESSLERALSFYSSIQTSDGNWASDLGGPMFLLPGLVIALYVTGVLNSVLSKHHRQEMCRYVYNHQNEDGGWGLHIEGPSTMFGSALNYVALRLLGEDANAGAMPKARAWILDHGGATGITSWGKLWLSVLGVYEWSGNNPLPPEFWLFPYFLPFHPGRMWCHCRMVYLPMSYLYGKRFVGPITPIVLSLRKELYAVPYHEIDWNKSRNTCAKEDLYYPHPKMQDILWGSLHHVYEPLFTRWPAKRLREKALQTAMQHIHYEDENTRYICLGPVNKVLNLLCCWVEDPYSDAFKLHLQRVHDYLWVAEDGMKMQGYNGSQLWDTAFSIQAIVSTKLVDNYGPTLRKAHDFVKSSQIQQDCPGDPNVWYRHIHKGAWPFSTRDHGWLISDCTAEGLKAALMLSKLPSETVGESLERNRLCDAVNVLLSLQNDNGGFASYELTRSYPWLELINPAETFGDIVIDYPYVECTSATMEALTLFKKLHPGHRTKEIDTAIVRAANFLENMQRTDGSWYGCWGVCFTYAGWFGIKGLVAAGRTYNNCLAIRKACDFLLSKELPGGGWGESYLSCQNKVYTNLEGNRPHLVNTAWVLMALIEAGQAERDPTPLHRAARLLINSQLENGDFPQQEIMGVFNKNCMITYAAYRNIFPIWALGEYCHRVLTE
Chain of SgCS (cucurbitadienol synthase, wild type 50R573L) (Siraitia grosvenorii; R50C) (chain, as listed by the source R50C): as the sequence (chain, as listed by the source) above, with R50C counted along it

For “SgCS (cucurbitadienol synthase, wild type 50R573L) (Siraitia grosvenorii)”, the Km [1] was 0.29 µM, the kcat [1] was 0.0147 s⁻¹ and the kcat/Km [1] was 49700 M⁻¹ s⁻¹.

“SgCS (cucurbitadienol synthase, wild type 50R573L) (Siraitia grosvenorii; R50C)” was tested, and the Km [2] was 0.32 µM, the kcat [2] was 0.0128 s⁻¹ and the kcat/Km [2] was 40200 M⁻¹ s⁻¹.
